This is an account of results in the RNAGym collection of RNA variant scans (doi:10.1073/pnas.2313332121).

B1: TPR t1 (parent)
chain: GACCAAUCUGCCCUCAGAGCUCGAGAACAUCUUCGGAUGCAGAGGAGGCAGGCUUCGGUGGCGCGAUAGCGCCAACGUCCUCAACCUCCAAUGCAUCCCACCACAUGAUGAUGCCUGAAGAGCCUUGGUUUUUUG

The variants in this data set derive from B1. The data set can be described thus: polymerase ribozyme fitness, log enrichment relative to wild type (log ratio); higher = more active; in vitro selection for triplet polymerase activity. The procedure, abridged: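 Mutant libraries for each subunit of a heterodimeric triplet polymerase ribozyme were made by PCR and then transcribed. Each library underwent one round of in vitro selection in triplicate: annealing with a biotinylated primer, the partner subunit and triplets, frozen incubation at −7 °C, gel excision of extended constructs, streptavidin-bead capture and RT-PCR. Input and output libraries were Illumina-sequenced, and only genotypes with ≥10 input reads and ≥1 read per output were kept. Fitness is the logarithm, base 2, of genotype enrichment over wild-type enrichment, computed from inverse-variance-weighted replicate averages.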
U30A G39U C101A A111U A119G C123G: the “polymerase ribozyme fitness (log ratio)” value is -6.64.

As for C28U G63U G77A C94A U112C, the “polymerase ribozyme fitness (log ratio)” value was -6.92.

Turning to A29C A37C C94U G120C, the “polymerase ribozyme fitness (log ratio)” value was -4.25.

As to C28U A111C, the “polymerase ribozyme fitness (log ratio)” value was -3.29.

Regarding C28U A111U, the “polymerase ribozyme fitness (log ratio)” value is -3.7.

Turning to C28U C56U C73G U78C C101A, the “polymerase ribozyme fitness (log ratio)” value was -5.44.

Consider C28U C40A G120C, for which the “polymerase ribozyme fitness (log ratio)” value is -2.59.

Regarding C28G U87G, the “polymerase ribozyme fitness (log ratio)” value is -2.01.

With A29G C53A C70G G110C, the “polymerase ribozyme fitness (log ratio)” value was -5.69.

For C28U U133G, the “polymerase ribozyme fitness (log ratio)” value is -1.83.

As to C28U G93A C101U, the “polymerase ribozyme fitness (log ratio)” value was -3.39.

For C28U C40A C123A, the “polymerase ribozyme fitness (log ratio)” value is -3.16.

With A29C A50U C104A C114G, the “polymerase ribozyme fitness (log ratio)” value is -8.27.

As for A29U A46C G117C, the “polymerase ribozyme fitness (log ratio)” value is -4.13.

For the variant C28U C73G G93C, the “polymerase ribozyme fitness (log ratio)” value was -3.34.

As to A29G G45C U106A, the “polymerase ribozyme fitness (log ratio)” value is -1.67.

With C28U A46G U129G, the “polymerase ribozyme fitness (log ratio)” value was -2.5.

On to A29C C56G C82A U87C C89A A108G C124A, for which the “polymerase ribozyme fitness (log ratio)” value is -7.12.

Turning to A29G G36A G69A G71U C104U, the “polymerase ribozyme fitness (log ratio)” value is -6.16.

Consider C28U C56G C73A, for which the “polymerase ribozyme fitness (log ratio)” value is -4.7.

Regarding A29C U54C, the “polymerase ribozyme fitness (log ratio)” value was -1.78.

For the variant A29G C56U C101G, the “polymerase ribozyme fitness (log ratio)” value was -6.01.

A29U G69U: the “polymerase ribozyme fitness (log ratio)” value was -0.63.

For A29G C76A G120U, the “polymerase ribozyme fitness (log ratio)” value is -1.97.

On to C28U C72G U78A, for which the “polymerase ribozyme fitness (log ratio)” value is -2.79.

As for C28U C56A, the “polymerase ribozyme fitness (log ratio)” value was -1.65.

Turning to A29U G48C C82G A118U, the “polymerase ribozyme fitness (log ratio)” value was -2.03.

As to A29G C73A, the “polymerase ribozyme fitness (log ratio)” value was -1.67.

For A29G A37C, the “polymerase ribozyme fitness (log ratio)” value is -2.19.

For the variant C28U C104U, the “polymerase ribozyme fitness (log ratio)” value was -2.27.

As to A29G A37U G61U, the “polymerase ribozyme fitness (log ratio)” value was -1.98.

For A29C G36U G69C G77A C97U A105U U106A, the “polymerase ribozyme fitness (log ratio)” value was -5.4.

Regarding A29U G69U G120U, the “polymerase ribozyme fitness (log ratio)” value was -0.561.

Take A29U G48A A111C: the “polymerase ribozyme fitness (log ratio)” value was -2.11.

For the variant C28U G71C C124U, the “polymerase ribozyme fitness (log ratio)” value was -2.51.

As for A29U U81C C124A, the “polymerase ribozyme fitness (log ratio)” value is -0.606.

On to A29U C73U C98U A111C, for which the “polymerase ribozyme fitness (log ratio)” value is -3.36.

With C28U A50U C123U, the “polymerase ribozyme fitness (log ratio)” value was -3.55.

Take A29C U112A: the “polymerase ribozyme fitness (log ratio)” value is -2.33.

In the case of C28U C124U, the “polymerase ribozyme fitness (log ratio)” value was -0.485.

C28U C124A: the “polymerase ribozyme fitness (log ratio)” value was found to be 0.0271.

Regarding A29G G71A U92C U129C, the “polymerase ribozyme fitness (log ratio)” value is -4.75.

Turning to C28U G52C C56G, the “polymerase ribozyme fitness (log ratio)” value was -3.11.

For the variant C28U G71A G77A C114A, the “polymerase ribozyme fitness (log ratio)” value was -6.98.

Regarding C28U G60C A118G, the “polymerase ribozyme fitness (log ratio)” value was -2.75.

On to A29G U32C G42U G47C, for which the “polymerase ribozyme fitness (log ratio)” value is -4.18.

For the variant U30A U129G, the “polymerase ribozyme fitness (log ratio)” value is -4.77.

Regarding A29G A118U, the “polymerase ribozyme fitness (log ratio)” value was -0.684.

On to A29U G47A C86G, for which the “polymerase ribozyme fitness (log ratio)” value was -2.

Consider A29U A111C C115G U125G U133A, for which the “polymerase ribozyme fitness (log ratio)” value was -4.49.

In the case of A29U U38G C88U, the “polymerase ribozyme fitness (log ratio)” value was -3.31.

For A29U G61U U106G, the “polymerase ribozyme fitness (log ratio)” value is -1.91.

Regarding A29C G52C C114U, the “polymerase ribozyme fitness (log ratio)” value was -4.25.

In the case of C28U C72U, the “polymerase ribozyme fitness (log ratio)” value was -2.26.

Consider C28U C72G, for which the “polymerase ribozyme fitness (log ratio)” value was -2.23.

Consider A29U C70U, for which the “polymerase ribozyme fitness (log ratio)” value is -2.15.

A29C G69U C99U: the “polymerase ribozyme fitness (log ratio)” value is -3.95.

As to C28U A41C G57C, the “polymerase ribozyme fitness (log ratio)” value was -2.88.

As to A29G U55G G58A C72G U131C U133G, the “polymerase ribozyme fitness (log ratio)” value was -2.75.

For the variant A29G U38G C73G C82U A100G C115G, the “polymerase ribozyme fitness (log ratio)” value is -7.25.

Take C28U A50U C62U A68G U106A G110A C114A: the “polymerase ribozyme fitness (log ratio)” value is -6.37.

For C28U A43G G113A, the “polymerase ribozyme fitness (log ratio)” value is -3.91.

Turning to C28U C72G G110C, the “polymerase ribozyme fitness (log ratio)” value is -1.52.

In the case of C28U G120A, the “polymerase ribozyme fitness (log ratio)” value was -1.19.

As to A29U C40U G44U C85U C89A C94G, the “polymerase ribozyme fitness (log ratio)” value was -4.32.

Take A29G C76U G77C: the “polymerase ribozyme fitness (log ratio)” value is -2.58.

Regarding A29U G48U C70G C123U, the “polymerase ribozyme fitness (log ratio)” value was -5.55.

For the variant A29U C99G A119G G120C, the “polymerase ribozyme fitness (log ratio)” value is -6.66.

For the variant A29U C40U C62A A83C, the “polymerase ribozyme fitness (log ratio)” value is -3.08.

In the case of C28U G45A C70U C124U, the “polymerase ribozyme fitness (log ratio)” value is -2.79.

Take A29G U32C U106A: the “polymerase ribozyme fitness (log ratio)” value was -2.24.

With C28U A41C C53G, the “polymerase ribozyme fitness (log ratio)” value is -3.32.

On to C28U G48A C53G C89U, for which the “polymerase ribozyme fitness (log ratio)” value is -3.42.

On to A29U C101A G110A A118G A121G, for which the “polymerase ribozyme fitness (log ratio)” value was -4.96.

On to A29C G71C A95U C124U, for which the “polymerase ribozyme fitness (log ratio)” value is -4.83.

For A29G G42C, the “polymerase ribozyme fitness (log ratio)” value was -2.66.

Regarding A29U G52U U106C G117A A118U C124G, the “polymerase ribozyme fitness (log ratio)” value was -1.91.

With A29C A37G G47U C72U C101U G110U, the “polymerase ribozyme fitness (log ratio)” value was -6.59.

Turning to C28U A121C, the “polymerase ribozyme fitness (log ratio)” value was -0.0887.

Consider C28U C40U G51C C76A, for which the “polymerase ribozyme fitness (log ratio)” value is -6.21.

Take A29U C73A C98A: the “polymerase ribozyme fitness (log ratio)” value was -4.9.

On to A29U C53U C79U A111C G120C, for which the “polymerase ribozyme fitness (log ratio)” value is -3.26.

For the variant C28U G45A C49G C72U G122A, the “polymerase ribozyme fitness (log ratio)” value was -4.63.

For the variant C28U C70U, the “polymerase ribozyme fitness (log ratio)” value was -2.13.
